T1: myc-tagged H37 protein
T1 chain: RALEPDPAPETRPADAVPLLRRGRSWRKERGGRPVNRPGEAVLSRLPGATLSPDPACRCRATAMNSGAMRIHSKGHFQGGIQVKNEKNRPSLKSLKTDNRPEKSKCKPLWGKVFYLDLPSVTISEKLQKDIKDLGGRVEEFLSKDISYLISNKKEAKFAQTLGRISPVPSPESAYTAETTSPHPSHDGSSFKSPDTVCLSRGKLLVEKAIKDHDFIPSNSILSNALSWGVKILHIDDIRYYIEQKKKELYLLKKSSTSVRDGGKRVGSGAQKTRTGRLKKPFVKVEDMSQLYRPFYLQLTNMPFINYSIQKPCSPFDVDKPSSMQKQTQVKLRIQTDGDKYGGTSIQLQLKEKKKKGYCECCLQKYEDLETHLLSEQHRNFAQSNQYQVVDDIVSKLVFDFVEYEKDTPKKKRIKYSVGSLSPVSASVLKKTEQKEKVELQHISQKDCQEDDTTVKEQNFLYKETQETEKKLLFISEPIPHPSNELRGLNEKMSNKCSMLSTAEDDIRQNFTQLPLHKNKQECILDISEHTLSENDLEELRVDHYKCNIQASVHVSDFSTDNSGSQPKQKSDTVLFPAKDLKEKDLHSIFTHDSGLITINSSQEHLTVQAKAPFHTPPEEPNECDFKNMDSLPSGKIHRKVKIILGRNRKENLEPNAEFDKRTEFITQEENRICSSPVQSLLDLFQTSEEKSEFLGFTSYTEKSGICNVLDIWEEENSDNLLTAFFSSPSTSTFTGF


Key:
[1] = biological target: huCdc7 fused to DNA-binding domain of Gal4 (human); assay: yeast two-hybrid assay, lacZ activity
myc-tagged H37 protein = biological target: T1, myc-tagged H37 protein

binding ability with huCdc7 relative to full-length H37 [1] [%]	Binder	in vitro kinase reaction of huCdc7/H37 immunoprecipitates with GST-MCM3 fusion protein as substrate (myc-tagged H37 protein)
60	H37 deletion derivative ΔC fused to Gal4 activation domain (protein, not shown: large carriers) MNSGAMRIHSKGHFQGGIQVKNEKNRPSLKSLKTDNRPEKSKCKPLWGKVFYLDLPSVTISEKLQKDIKDLGGRVEEFLSKDISYLISNKKEAKFAQTLGRISPVPSPESAYTAETTSPHPSHDGSSFKSPDTVCLSRGKLLVEKAIKDHDFIPSNSILSNALSWGVKILHIDDIRYYIEQKKKELYLLKKSSTSVRDGGKRVGSGAQKTRTGRLKKPFVKVEDMSQLYRPFYLQLTNMPFINYSIQKPCSPFDVDKPSSMQKQTQVKLRIQTDGDKYGGTSIQLQLKEKKKKGYCECCLQKYEDLETHLLSEQHRNFAQSNQYQVVDDIVSKLVFDFVEYEKDTPKKKRIKYSVGSLSPVSASVLKKTEQKEKVELQHISQKDCQEDDTTVKEQNFLYKETQETEKKLLFISEPIPHPSNELRGLNEKMSNKCSMLSTAEDDIRQNFTQLPLHKNKQECILDISEHTLSENDLEELRVDHYKCNIQASVHVSDFSTDNSGSQPKQKSDTVLFPAKDLKEKDLHSIFTHDSGLITINSSQEHLTVQAKAPFHTPPEEPNECDFKNMDSLPSGKIHRKVKIILGRNRKENLEPNAEFDKRTEFITQEENRICSSPVQSLLDLFQTSEEKSEFLGFTSYTEKSGICNVLDIWEEEN	
	huCdc7 (protein) MEASLGIQMDEPMAFSPQRDRFQAEGSLKKNEQNFKLAGVKKDIEKLYEAVPQLSNVFKIEDKIGEGTFSSVYLATAQLQVGPEEKIALKHLIPTSHPIRIAAELQCLTVAGGQDNVMGVKYCFRKNDHVVIAMPYLEHESFLDILNSLSFQEVREYMLNLFKALKRIHQFGIVHRDVKPSNFLYNRRLKKYALVDFGLAQGTHDTKIELLKFVQSEAQQERCSQNKSHIITGNKIPLSGPVPKELDQQSTTKASVKRPYTNAQIQIKQGKDGKEGSVGLSVQRSVFGERNFNIHSSISHESPAVKLMKQSKTVDVLSRKLATKKKAISTKVMNSAVMRKTASSCPASLTCDCYATDKVCSICLSRRQQVAPRAGTPGFRAPEVLTKCPNQTTAIDMWSAGVIFLSLLSGRYPFYKASDDLTALAQIMTIRGSRETIQAAKTFGKSILCSKEVPAQDLRKLCERLRGMDSSTPKLTSDIQGHASHQPAISEKTDHKASCLVQTPPGQYSGNSFKKGDSNSCEHCFDEYNTNLEGWNEVPDEAYDLLDKLLDLNPASRITAEEALLHPFFKDMSL	phosphorylation in a good efficiency was observed for the MCM3 protein in both immunoprecipitate of anti-huCdc7 antibody and immunoprecipitate of anti-myc antibody

From patent US6897054
